Laboratory results: CN114685674A

Biological target: VEGF165 (UniProt P15692)
Assay: cell-based or functional assay

Sequence of UniProt P15692 (P15692 other isoform, or with tags, fused parts or gaps): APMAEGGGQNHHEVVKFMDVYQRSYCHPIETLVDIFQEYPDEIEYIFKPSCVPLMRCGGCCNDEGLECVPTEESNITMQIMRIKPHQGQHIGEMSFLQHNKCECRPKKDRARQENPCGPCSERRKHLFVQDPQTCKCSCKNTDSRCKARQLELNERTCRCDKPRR

Substance: Conbercept(康柏西普) (Fc fusion)
- HUVEC细胞增殖抑制 EC50: 0.221 nM
